Patent US20180326084A1 (Genmab, published 2018)

Assays:
[1] = target: T1, human AXL (full length) (human, UniProt P30530 26-894); assay: flow cytometry, Gas6 titrated on A431 cells pre-incubated with 10 µg/mL control antibody b12
T1 construct: also called TH1021-AXL; TH1021-hAXL

[2] = target: T1, human AXL (full length); assay: as above; remark: listed apart in the source
[3] = target: T1, human AXL (full length); assay: flow cytometry, Gas6 titrated on A431 cells pre-incubated with 10 µg/mL IgG1-AXL-107 (competitor)
[4] = target: T1, human AXL (full length); assay: flow cytometry, Gas6 titrated on A431 cells pre-incubated with 10 µg/mL IgG1-AXL-148 (competitor)
[5] = target: T1, human AXL (full length); assay: flow cytometry, Gas6 titrated on A431 cells pre-incubated with 10 µg/mL IgG1-AXL-154 (competitor)
[6] = target: T1, human AXL (full length); assay: flow cytometry, Gas6 titrated on A431 cells pre-incubated with 10 µg/mL IgG1-AXL-171 (competitor)
[7] = target: T1, human AXL (full length); assay: flow cytometry, Gas6 titrated on A431 cells pre-incubated with 10 µg/mL IgG1-AXL-183 (competitor)
[8] = target: T1, human AXL (full length); assay: flow cytometry, Gas6 titrated on A431 cells pre-incubated with 10 µg/mL IgG1-AXL-511 (competitor)
[9] = target: T1, human AXL (full length); assay: flow cytometry, Gas6 titrated on A431 cells pre-incubated with 10 µg/mL IgG1-AXL-613 (competitor)
[10] = target: T1, human AXL (full length); assay: flow cytometry, Gas6 titrated on A431 cells pre-incubated with 10 µg/mL IgG1-AXL-726 (competitor)
[11] = target: T1, human AXL (full length); assay: flow cytometry, Gas6 titrated on A431 cells pre-incubated with 10 µg/mL IgG1-AXL-733 (competitor)
[12] = target: T1, human AXL (full length); assay: flow cytometry, Gas6 titrated on A431 cells pre-incubated with 10 µg/mL IgG1-AXL-107 (competitor); remark: listed apart in the source
[13] = target: T1, human AXL (full length); assay: flow cytometry, Gas6 titrated on A431 cells pre-incubated with 10 µg/mL IgG1-AXL-613 (competitor); remark: listed apart in the source
[14] = target: T1, human AXL (full length); assay: flow cytometry, A431 cells pre-incubated with medium only; Gas6 detected with mouse anti-Gas6 and FITC anti-mouse IgG
[15] = target: T1, human AXL (full length); assay: flow cytometry, Gas6 titrated on A431 cells pre-incubated with 10 µg/mL YW327.6S2 (competitor); value less accurate due to low binding
[16] = target: T1, human AXL (full length); assay: as above; remark: listed apart in the source
[17] = target: T1, human AXL (full length); assay: flow cytometry, A431 cells, no Gas6
[18] = target: T2, Homo sapiens AXL-Mus musculus Ig2 domain (p33-AXL-mIg2) (human-mouse chimera, UniProt P30530 26-894); assay: flow cytometry, 1 µg/mL antibody, transfected HEK293F cells
T2 construct: Expressed in HEK293F cells; also called hsAXL-mmIg2; TH1021-mIg2
T2 chain: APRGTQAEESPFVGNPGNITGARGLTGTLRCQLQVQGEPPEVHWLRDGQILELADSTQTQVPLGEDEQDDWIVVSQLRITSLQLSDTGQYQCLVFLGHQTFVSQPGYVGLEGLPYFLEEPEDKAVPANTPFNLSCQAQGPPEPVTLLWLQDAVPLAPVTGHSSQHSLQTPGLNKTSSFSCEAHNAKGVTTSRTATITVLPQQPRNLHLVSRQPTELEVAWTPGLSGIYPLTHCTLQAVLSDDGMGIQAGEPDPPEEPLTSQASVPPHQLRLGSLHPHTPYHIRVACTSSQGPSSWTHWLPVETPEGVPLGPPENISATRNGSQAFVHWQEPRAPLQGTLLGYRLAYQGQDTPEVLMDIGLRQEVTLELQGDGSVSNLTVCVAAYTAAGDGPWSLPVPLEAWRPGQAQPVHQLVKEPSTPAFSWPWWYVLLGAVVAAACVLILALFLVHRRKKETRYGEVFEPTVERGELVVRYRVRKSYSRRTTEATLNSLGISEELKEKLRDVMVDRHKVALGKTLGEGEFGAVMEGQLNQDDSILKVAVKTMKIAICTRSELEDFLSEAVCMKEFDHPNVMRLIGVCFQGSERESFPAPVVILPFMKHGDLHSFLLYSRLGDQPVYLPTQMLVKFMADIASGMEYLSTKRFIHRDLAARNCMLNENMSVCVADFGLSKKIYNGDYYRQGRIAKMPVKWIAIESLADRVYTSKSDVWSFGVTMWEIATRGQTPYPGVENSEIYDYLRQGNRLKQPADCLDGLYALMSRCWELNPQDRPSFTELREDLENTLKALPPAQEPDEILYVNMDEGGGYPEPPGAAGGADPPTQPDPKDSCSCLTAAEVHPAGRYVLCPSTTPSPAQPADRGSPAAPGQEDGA

[19] = target: T3, Homo sapiens AXL-Mus musculus FN1 domain (p33-AXL-mFN1) (human-mouse chimera, UniProt P30530 26-894); assay: as above
T3 construct: Expressed in HEK293F cells; also called hsAXL-mmFN1; TH1021-mFN1
T3 chain: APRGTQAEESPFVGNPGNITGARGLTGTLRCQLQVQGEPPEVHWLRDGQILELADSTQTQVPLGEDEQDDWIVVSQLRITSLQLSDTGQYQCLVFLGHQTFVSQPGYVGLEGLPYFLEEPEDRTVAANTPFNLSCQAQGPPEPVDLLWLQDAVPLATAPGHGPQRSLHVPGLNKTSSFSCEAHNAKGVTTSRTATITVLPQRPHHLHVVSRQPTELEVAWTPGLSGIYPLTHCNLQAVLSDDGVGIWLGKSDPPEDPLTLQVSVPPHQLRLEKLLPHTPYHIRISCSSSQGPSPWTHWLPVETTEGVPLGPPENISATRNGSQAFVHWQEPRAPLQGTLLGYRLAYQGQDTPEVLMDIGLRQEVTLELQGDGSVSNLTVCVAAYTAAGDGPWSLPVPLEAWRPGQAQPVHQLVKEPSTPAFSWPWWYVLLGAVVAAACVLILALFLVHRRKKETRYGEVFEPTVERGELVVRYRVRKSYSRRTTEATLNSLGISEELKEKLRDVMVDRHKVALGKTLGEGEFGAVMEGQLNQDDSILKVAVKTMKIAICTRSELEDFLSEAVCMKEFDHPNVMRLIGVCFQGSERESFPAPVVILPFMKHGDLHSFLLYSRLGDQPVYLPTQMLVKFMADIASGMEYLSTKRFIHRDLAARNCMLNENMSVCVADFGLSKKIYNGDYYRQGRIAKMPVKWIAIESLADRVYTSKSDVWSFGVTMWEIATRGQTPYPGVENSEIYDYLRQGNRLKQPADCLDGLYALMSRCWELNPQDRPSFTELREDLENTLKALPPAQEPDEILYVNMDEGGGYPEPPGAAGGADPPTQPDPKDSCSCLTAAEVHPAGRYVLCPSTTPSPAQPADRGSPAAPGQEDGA

[20] = target: T4, Homo sapiens AXL-Mus musculus FN2 domain (p33-AXL-mFN2) (human-mouse chimera, UniProt P30530 26-894); assay: as above
T4 construct: Expressed in HEK293F cells; also called hsAXL-mmFN2; TH1021-mFN2
T4 chain: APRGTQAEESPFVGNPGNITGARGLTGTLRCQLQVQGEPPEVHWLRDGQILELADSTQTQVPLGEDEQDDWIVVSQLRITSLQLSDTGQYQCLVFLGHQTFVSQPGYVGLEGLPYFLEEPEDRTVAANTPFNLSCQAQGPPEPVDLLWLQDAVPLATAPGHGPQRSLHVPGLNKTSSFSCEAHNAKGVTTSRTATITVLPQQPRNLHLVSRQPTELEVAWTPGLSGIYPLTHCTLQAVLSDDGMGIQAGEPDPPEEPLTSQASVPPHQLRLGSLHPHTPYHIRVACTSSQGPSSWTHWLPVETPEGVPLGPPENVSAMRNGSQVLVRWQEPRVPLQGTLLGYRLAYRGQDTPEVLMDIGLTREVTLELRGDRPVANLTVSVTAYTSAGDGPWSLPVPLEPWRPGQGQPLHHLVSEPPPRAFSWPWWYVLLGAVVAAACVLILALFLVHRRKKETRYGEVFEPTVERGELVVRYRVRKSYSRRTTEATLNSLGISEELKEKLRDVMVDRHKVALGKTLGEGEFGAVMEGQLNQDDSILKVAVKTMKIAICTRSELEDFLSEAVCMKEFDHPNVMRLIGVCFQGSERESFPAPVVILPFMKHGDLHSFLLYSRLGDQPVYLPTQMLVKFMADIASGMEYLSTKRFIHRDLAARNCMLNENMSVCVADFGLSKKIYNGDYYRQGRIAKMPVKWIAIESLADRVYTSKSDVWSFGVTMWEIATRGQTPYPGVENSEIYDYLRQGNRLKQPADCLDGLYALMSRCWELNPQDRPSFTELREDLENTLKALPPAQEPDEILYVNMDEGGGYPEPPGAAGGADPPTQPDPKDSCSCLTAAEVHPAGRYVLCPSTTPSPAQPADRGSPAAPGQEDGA

[21] = target: T1, human AXL (full length); assay: flow cytometry, A431 cells pre-incubated with 10 µg/mL Gas6 (competitor)

B1: recombinant human Gas6 (ligand, UniProt Q14393 49-678, looked up)
chain: AFQVFEEAKQGHLERECVEELCSREEAREVFENDPETDYFYPRYLDCINKYGSPYTKNSGFATCVQNLPDQCTPNPCDRKGTQACQDLMGNFFCLCKAGWGGRLCDKDVNECSQENGGCLQICHNKPGSFHCSCHSGFELSSDGRTCQDIDECADSEACGEARCKNLPGSYSCLCDEGFAYSSQEKACRDVDECLQGRCEQVCVNSPGSYTCHCDGRGGLKLSQDMDTCEDILPCVPFSVAKSVKSLYLGRMFSGTPVIRLRFKRLQPTRLVAEFDFRTFDPEGILLFAGGHQDSTWIVLALRAGRLELQLRYNGVGRVTSSGPVINHGMWQTISVEELARNLVIKVNRDAVMKIAVAGDLFQPERGLYHLNLTVGGIPFHEKDLVQPINPRLDGCMRSWNWLNGEDTTIQETVKVNTRMQCFSVTERGSFYPGSGFAFYSLDYMRTPLDVGTESTWEVEVVAHIRPAADTGVLFALWAPDLRAVPLSVALVDYHSTKKLKKQLVVLAVEHTALALMEIKVCDGQEHVVTVSLRDGEATLEVDGTRGQSEVSAAQLQERLAVLERHLRSPVLTFAGGLPDVPVTSAPVTAFYRGCMTLEVNRRLLDLDEAAYKHSDITAHSCPPVEPAAA
notes: Bought reagent; also called hGas6; Growth Arrest-Specific 6
EC50 [1]: 0.4 mg/L
EC50 [2]: 0.4 mg/L
EC50 [3]: 0.78 mg/L
EC50 [4]: 0.73 mg/L
EC50 [5]: 0.44 mg/L
EC50 [6]: 0.69 mg/L
EC50 [7]: 0.34 mg/L
EC50 [8]: 0.74 mg/L
EC50 [9]: 0.57 mg/L
EC50 [10]: 0.77 mg/L
EC50 [11]: 0.83 mg/L
EC50 [12]: 0.78 mg/L
EC50 [13]: 0.57 mg/L
EC50 (read off the curve) [14]: ~0.1 mg/L
EC50 [15]: 5.53 mg/L
EC50 [16]: 5.53 mg/L

B2: IgG1-AXL-061 (antibody, V domains shown)
VH: QVQLVQSGAEVKKPGASVKVSCKASGYAFTGYGISWVRQAPGQGLEWIGWISAYNGNTNYVQNLQDRVTMTTDTSTSTAYMELRSLRSDDTAVYYCARDHISMLRGIIIRNYWGQGTLVTVSS
VL: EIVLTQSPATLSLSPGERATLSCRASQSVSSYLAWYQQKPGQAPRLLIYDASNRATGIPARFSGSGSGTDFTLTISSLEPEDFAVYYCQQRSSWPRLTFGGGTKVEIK
EC50 [17]: 0.15 mg/L
binding result [18]: binds
binding result [19]: binds
binding result [20]: binds
maximal binding in presence of Gas6 (% of binding in absence of Gas6) [21]: 43%
